Experimental data from publication PMC3876286 (ACS chemical biology, 2013).

Test system: r(CUG)12
Assay: SPR binding to r

B1: muscleblind-like 1 protein (protein, UniProt Q9NR56 1-388, looked up)
Muscleblind-like protein 1: MAVSVTPIRDTKWLTLEVCREFQRGTCSRPDTECKFAHPSKSCQVENGRVIACFDSLKGRCSRENCKYLHPPPHLKTQLEINGRNNLIQQKNMAMLAQQMQLANAMMPGAPLQPVPMFSVAPSLATNASAAAFNPYLGPVSPSLVPAEILPTAPMLVTGNPGVPVPAAAAAAAQKLMRTDRLEVCREYQRGNCNRGENDCRFAHPADSTMIDTNDNTVTVCMDYIKGRCSREKCKYFHPPAHLQAKIKAAQYQVNQAAAAQAAATAAAMTQSAVKSLKRPLEATFDLGIPQAVLPPLPKRPALEKTNGATAVFNTGIFQYQQALANMQLQQHTAFLPPVPMVHGATPATVSAATTSATSVPFAATATANQIPIISAEHLTSHKYVTQM
koff (1): 0.00203 s⁻¹ | kon (1): 3280 M⁻¹ s⁻¹ | Kd (read-out: Kobs (1)): 619 nM
